Target: TSH β-subunit (human, UniProt P01222 21-132, N-linked glycan (one))
Assay: cryo-EM structure

Chain of TSH β-subunit (P01222 21-132): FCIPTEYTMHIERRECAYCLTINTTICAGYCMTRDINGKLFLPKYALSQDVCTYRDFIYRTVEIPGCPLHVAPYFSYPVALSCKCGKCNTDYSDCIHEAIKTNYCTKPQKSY

B1: TSH α-subunit (natural protein)
chain: not shown
modifications: N-linked glycans (two, one at N52)
- binding result: binds
